Experimental findings from article PMC3630135, “Tenascin C Promiscuously Binds Growth Factors via Its Fifth Fibronectin Type III-Like Domain” (PLoS ONE, 2013) are described below.

The target of test [1] is Bone morphogenetic protein (BMP)-2 (human) (UniProt P12643). Put plainly: ELISA; cross-competition: growth factor (50 nM) coated; 10 nM TNCIII1–5 with full length TNC (0, 0.2, 0.6, 1.9, 5.6, […], 50 nM) in PBST, 1 h RT; TNCIII1–5 detected with HRP-anti-HIS; relative to binding without TNC. For orientation: An ELISA detects its analyte on a solid surface through an enzyme-linked reagent.
Chain of Bone morphogenetic protein (BMP)-2 (human) (P12643 283-396): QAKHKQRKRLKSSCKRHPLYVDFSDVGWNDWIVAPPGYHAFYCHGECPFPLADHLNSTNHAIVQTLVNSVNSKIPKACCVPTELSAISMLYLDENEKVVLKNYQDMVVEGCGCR

In a further test the target is FGF-2 (human) (UniProt P09038). Described as above.
Chain of FGF-2 (human) (P09038 143-288): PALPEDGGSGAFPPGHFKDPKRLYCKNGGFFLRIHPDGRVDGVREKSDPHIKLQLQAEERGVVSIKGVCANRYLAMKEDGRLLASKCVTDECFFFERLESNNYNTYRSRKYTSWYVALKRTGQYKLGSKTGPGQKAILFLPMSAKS
A further test deals with neurotrophin-3 (human) (UniProt P20783). Put plainly: ELISA; as a1 but with 4 µM heparin (40-fold excess over 100 nM TNCIII1-5) during the incubation with TNCIII1-5.
The target of test [2] is Bone morphogenetic protein (BMP)-2 (human) (UniProt P12643). The test is described as above.
Test [3] concerns the target TNCIII1–5 (first five fibronectin type III-like repeats of human tenascin C, with N-terminal transglutaminase substrate and C-terminal 6xHis tag) (UniProt P24821). Put plainly: SPR; Biacore X100; about 450 RU TNCIII1–5 amine-coupled on Sensor Chip C1, BSA on the control channel; growth factors flowed in PBS with 0.1% BSA at 30 µl/min; Langmuir fit.
The target in the next test is T1, GST-TNCIII5 (human, UniProt P24821 983-1074).
T1 construct: tenascin C, fifth TNCIII domain, T983–A1074; source: E. coli BL21, purified (Ni-NTA agarose)
T1 sequence (looked up): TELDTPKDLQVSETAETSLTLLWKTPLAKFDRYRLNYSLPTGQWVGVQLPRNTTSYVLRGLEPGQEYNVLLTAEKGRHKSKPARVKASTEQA
Put plainly: ELISA; GST-TNCIII domains (1 µM in PBS) coated, blocked with 2% BSA; 2 nM PDGF-BB, 1 h RT; detected with anti-PDGF-BB and HRP anti-mouse. The following applies: both partners purified.

Bounds are passed on as bounds.

For “full-length native human tenascin C (from UniProt P24821 23-2201) (natural protein)”, in test [1], the IC50 (as a rule, the point on the concentration scale where inhibition reaches its midpoint) was > 50 nM and the percent inhibition of TNCIII1–5 binding at 50 nM TNC was determined as 34%. In the test with FGF-2 (human), this molecule yielded an IC50 of 5.6 nM.

With “TNCIII1–5 (first five fibronectin type III-like repeats of human tenascin C, with N-terminal transglutaminase substrate and C-terminal 6xHis tag) (from UniProt P24821 622-1074) (domain or fragment)”, the values for the percent of the original binding retained with 4 µM heparin (with neurotrophin-3 (human); in test [2]) were 57% and 66%, respectively.

On to TGF-β1 (ligand), for which, in test [3], the dissociation constant Kd (usually the concentration at which binding is half-saturated) was found to be 20.3 nM; the koff (commonly the first-order rate constant of dissociation) amounted to 0.000237 s⁻¹; the kon – broadly, a measure of how fast the partners come together – came out at 11700 M⁻¹ s⁻¹.

B1: PDGF-BB (ligand, human, UniProt P01127 82-190, looked up)
chain: SLGSLTIAEPAMIAECKTRTEVFEISRRLIDRTNANFLVWPPCVEVQRCSGCCNNRNVQCRPTQVQLRPVQVRKIEIVRKKPIFKKATVTLEDHLACKCETVAAARPVT
notes: Two B chains by its name; source: bought: Gibco
In the case of B1, in the test with GST-TNCIII5, the “fold binding level against TNCIII4” value came to 4 fold.

B2: neurotrophin-3 (ligand)
chain: YAEHKSHRGEYSVCDSESLWVTDKSSAIDIRGHQVTVLGEIKTGNSPVKQYFYETRCKEARPVKNGCRGIDDKHWNSQCKTSQTYVRALTSENNKLVGWRWIRIDTSCVCALSRKIGRT
In test [3], B2 yielded a Kd of 21 nM, a koff of 0.00106 s⁻¹ and a kon of 50700 M⁻¹ s⁻¹.
